IntAct's records for PubMed 23937259

target: pp1a_human PPP1CA (UniProt P62136)
Sequence (P62136 whole entry): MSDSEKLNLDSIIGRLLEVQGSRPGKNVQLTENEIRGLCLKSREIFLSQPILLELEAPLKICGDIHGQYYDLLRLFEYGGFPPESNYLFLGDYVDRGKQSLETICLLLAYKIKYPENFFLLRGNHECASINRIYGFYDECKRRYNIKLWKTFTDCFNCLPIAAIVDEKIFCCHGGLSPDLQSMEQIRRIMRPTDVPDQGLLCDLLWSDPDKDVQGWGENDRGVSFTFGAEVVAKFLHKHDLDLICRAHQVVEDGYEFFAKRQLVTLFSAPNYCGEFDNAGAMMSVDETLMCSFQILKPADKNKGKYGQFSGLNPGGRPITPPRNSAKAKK

| effect of a mutation on the interaction | Substance |
| --- | --- |
| increasing interaction strength | Leucine-rich repeat serine/threonine-protein kinase 2 (Homo sapiens), Q5S007 Y1699C |
| increasing interaction strength | Leucine-rich repeat serine/threonine-protein kinase 2 (Homo sapiens), Q5S007 R1441G |
| increasing interaction strength | Leucine-rich repeat serine/threonine-protein kinase 2 (Homo sapiens), Q5S007 N1437H |
| increasing interaction strength | Leucine-rich repeat serine/threonine-protein kinase 2 (Homo sapiens), Q5S007 S910A;S935A;S955A;S973A |
